Test results from PMC2192030.

Target: Xenopus Mad1 (Xenopus (endogenous in Xenopus egg extract))
Experiment: co-IP

percent of Mad2 removed by immunodepletion of Mad1: 20 to 40%
Substance: Xenopus Mad2 (natural protein)
